System: Escherichia coli TOP10
Assay: shrunken log2 fold change of peptide-encoding DNA abundance (4.5 h post-induction vs induction); higher = less antimicrobial activity (less host growth inhibition)
Conditions: time post-induction: 4.5 h; library: site-saturation at positions 5, 18, 19, 20
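Also: peptides expressed intracellularly from a pBAD plasmid library in pooled LB shake-flask culture, induced with 0.3% L-arabinose, DNA abundance read by NGS, three biological replicates, DESeq2 with apeglm shrinkage.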

Row | Sequence | shrunken log2 fold change
1 | RRIRFRPPRLPRPRPRPIHWPRP | -0.414
2 | RRIRPRPPRLPRPRPRPKNGPRP | 0.069
3 | RRIRLRPPRLPRPRPRPDDQPRP | 0.101
4 | RRIRHRPPRLPRPRPRPRPHPRP | 0.365
5 | RRIRIRPPRLPRPRPRPWFFPRP | -0.198
6 | RRIRIRPPRLPRPRPRPAANPRP | 0.0204
7 | RRIRKRPPRLPRPRPRPGQMPRP | 0.00812
8 | RRIRIRPPRLPRPRPRPHARPRP | 3.76
9 | RRIRGRPPRLPRPRPRPHKMPRP | 0.0936
10 | RRIRSRPPRLPRPRPRPVLSPRP | 0.0825
11 | RRIRARPPRLPRPRPRPRNKPRP | 0.271
12 | RRIRWRPPRLPRPRPRPNDQPRP | 0.0201
13 | RRIRKRPPRLPRPRPRPWTSPRP | -0.113
14 | RRIRVRPPRLPRPRPRPIMRPRP | 0.0562
15 | RRIRWRPPRLPRPRPRPWWWPRP | 0.12
16 | RRIRNRPPRLPRPRPRPIPMPRP | -0.026
17 | RRIRYRPPRLPRPRPRPVPTPRP | -0.0167
18 | RRIRTRPPRLPRPRPRPRYPPRP | -0.516
19 | RRIRERPPRLPRPRPRPKMEPRP | -0.0415
20 | RRIRLRPPRLPRPRPRPNHPPRP | -0.498
21 | RRIRHRPPRLPRPRPRPRGCPRP | 0.387
22 | RRIRKRPPRLPRPRPRPEKFPRP | -0.0568
23 | RRIRVRPPRLPRPRPRPTPIPRP | 0.186

Row | Sequence | shrunken log2 fold change
24 | RRIRRRPPRLPRPRPRPKRQPRP | 0.584
25 | RRIRLRPPRLPRPRPRPLPKPRP | 0.393
26 | RRIRPRPPRLPRPRPRPYFAPRP | -0.0984
27 | RRIRHRPPRLPRPRPRPYWGPRP | -0.0562
28 | RRIRYRPPRLPRPRPRPNIKPRP | -1.13
29 | RRIRERPPRLPRPRPRPSCMPRP | -0.416
30 | RRIRQRPPRLPRPRPRPHRFPRP | -0.275
31 | RRIRIRPPRLPRPRPRPNPVPRP | 0.087
32 | RRIRGRPPRLPRPRPRPYNYPRP | -0.129
33 | RRIRTRPPRLPRPRPRPSGGPRP | 0.863
34 | RRIRLRPPRLPRPRPRPGDKPRP | 0.00262
35 | RRIRERPPRLPRPRPRPSFNPRP | -0.637
36 | RRIRSRPPRLPRPRPRPNRGPRP | 0.0138
37 | RRIRFRPPRLPRPRPRPATDPRP | -0.0766
38 | RRIRVRPPRLPRPRPRPPCCPRP | 0.117
39 | RRIRTRPPRLPRPRPRPSTSPRP | -0.239
40 | RRIRPRPPRLPRPRPRPTMFPRP | -0.164
41 | RRIRDRPPRLPRPRPRPWGCPRP | 0.166
42 | RRIRNRPPRLPRPRPRPINTPRP | -0.574
43 | RRIRIRPPRLPRPRPRPTKWPRP | -0.15
44 | RRIRWRPPRLPRPRPRPRHFPRP | 0.223
45 | RRIRRRPPRLPRPRPRPGYIPRP | -0.177
46 | RRIRERPPRLPRPRPRPLSSPRP | 0.00508

Row | Sequence | shrunken log2 fold change
47 | RRIRIRPPRLPRPRPRPNVTPRP | -0.149
48 | RRIRNRPPRLPRPRPRPGRIPRP | -0.0181
49 | RRIRGRPPRLPRPRPRPFVKPRP | -0.419
50 | RRIRWRPPRLPRPRPRPGTIPRP | -0.283
51 | RRIRDRPPRLPRPRPRPTQQPRP | 0.248
52 | RRIRKRPPRLPRPRPRPFMAPRP | 0.0398
53 | RRIRERPPRLPRPRPRPKTMPRP | -0.293
54 | RRIRDRPPRLPRPRPRPYREPRP | -0.748
55 | RRIRDRPPRLPRPRPRPAPLPRP | 0.445
56 | RRIRIRPPRLPRPRPRPKYTPRP | -0.686
57 | RRIRSRPPRLPRPRPRPITSPRP | -0.0517
58 | RRIRTRPPRLPRPRPRPPRWPRP | 0.689
59 | RRIRDRPPRLPRPRPRPRADPRP | 0.65
60 | RRIRMRPPRLPRPRPRPACVPRP | 0.428
61 | RRIRKRPPRLPRPRPRPSNPPRP | -0.0952
62 | RRIRVRPPRLPRPRPRPIPPPRP | -0.2
63 | RRIRDRPPRLPRPRPRPETAPRP | 1.15
64 | RRIRCRPPRLPRPRPRPAKKPRP | 0.00097
65 | RRIRWRPPRLPRPRPRPTWCPRP | 0.242
66 | RRIRERPPRLPRPRPRPKQGPRP | -0.0514
67 | RRIRDRPPRLPRPRPRPACQPRP | 0.0344
68 | RRIRPRPPRLPRPRPRPLYMPRP | -0.673
69 | RRIRARPPRLPRPRPRPRRSPRP | 0.743

Row | Sequence | shrunken log2 fold change
70 | RRIRARPPRLPRPRPRPYYDPRP | -0.215
71 | RRIRCRPPRLPRPRPRPWSCPRP | -0.739
72 | RRIRYRPPRLPRPRPRPSMKPRP | -0.806
73 | RRIRMRPPRLPRPRPRPNYPPRP | -0.445
74 | RRIRVRPPRLPRPRPRPDVWPRP | -0.0858
75 | RRIRTRPPRLPRPRPRPADAPRP | -0.0445
76 | RRIRFRPPRLPRPRPRPPCGPRP | 0.362
77 | RRIRKRPPRLPRPRPRPSFHPRP | -0.219
78 | RRIRLRPPRLPRPRPRPCIAPRP | -0.185
79 | RRIRIRPPRLPRPRPRPIRAPRP | -0.634
80 | RRIRNRPPRLPRPRPRPSARPRP | 0.256
81 | RRIRERPPRLPRPRPRPFGLPRP | -0.0181
82 | RRIRGRPPRLPRPRPRPIAQPRP | 0.838
83 | RRIRVRPPRLPRPRPRPWYMPRP | -0.132
84 | RRIRLRPPRLPRPRPRPDVNPRP | -0.137
85 | RRIRHRPPRLPRPRPRPLEEPRP | 0.136
86 | RRIRHRPPRLPRPRPRPMGEPRP | -0.0135
87 | RRIRYRPPRLPRPRPRPWKLPRP | -0.121
88 | RRIRPRPPRLPRPRPRPMFVPRP | -0.254
89 | RRIRYRPPRLPRPRPRPFFLPRP | -0.763
90 | RRIRIRPPRLPRPRPRPDMVPRP | 0.0032
91 | RRIRTRPPRLPRPRPRPAIMPRP | -0.0824

Source: the supplement of paper PMC9112550, “Optimization of the antimicrobial peptide Bac7 by deep mutational scanning” (BMC Biology, 2022)
